Series [1] relates to rat organs (epiphysis, diaphysis, kidney). Description: [3H]thymidine incorporation into DNA in rat organs after i.p. injection. It is filed as in vivo. For orientation: Dividing cells build labelled thymidine or BrdU into new DNA.
In series [2] the test system is osteoblast enriched rat embryo calvaria cell cultures. As to the kind of experiment: DNA synthesis ([3H]thymidine incorporation) in rat embryo calvaria cell cultures. Format: cell-based. Here is the method:
(§1) FIG. 10 is a graphical representation showing the dose dependent stimulation by bPTH (1-84) of osteoblast enriched rat embryo calvaria cell cultures. Experimental details for the determination of cyclic AMP (.quadrature.) (15 min after stimulation) and incorporation of [^3 H]thymidine into DNA ( ) and CK ( ) specific activity (24 h after stimulation) are given below. The results are means ±S.E.M., N≥5. In several cases the S.E.M. was less than the size of the symbol. Control values were: cyclic AMP, 25±5 pmol/mg of protein; DNA, 240±30 c.p.m./μg of DNA; CK, 200±20 nmol/min per mg of protein. Statistical significance of differences between treated and corresponding control groups by Student's T test: *P<0.05; **P<0.01.

Series [3] has as its system ROS 17/2.8 osteoblast-like cells. Description: CK specific activity in ROS 17/2.8 osteoblast-like cells. It is filed as cell-based, rat. The conditions noted are these: control 698 ± 70 nmol/min per mg of protein.
For series [4] the test system is unchanged. Description: DNA synthesis in ROS 17/2.8 osteoblast-like cells. It is filed as cell-based, rat. To be noted: control 392 ± 58 c.p.m./μg of DNA.
Series [5] concerns osteoblast enriched rat embryo calvaria cell cultures. As to the kind of experiment: Cyclic AMP production in rat embryo calvaria cell cultures. It is filed as cell-based. The protocol:
as §1
(§2) Rat calvaria cultures were treated with fragments of PTH derived from the central portion of the molecule.

Series [6] deals with rat organs (epiphysis, diaphysis, kidney). As to the kind of experiment: [3H]thymidine incorporation into DNA in rat organs after i.p. injection. It is filed as in vivo. The protocol: FIG. 12 is a graph showing the time course of stimulation by hPTH (1-34) of DNA synthesis in rat organs. Female rats (20-25 days old) were injected i.p. with hPTH-(1-34) (2 μg/rat). At 2 h before the times indicated, the rats were killed and organs were removed and incubated in 2 ml of Dulbecco's modified Eagle's medium containing 5 μl of [^3 H]thymidine. (Amersham: 5 Ci/mmol) for 2 h, then washed with medium and homogenized in deionized distilled water. The total uptake of [^3 H]thymidine and acid-insoluble radioactivity was measured, as well as DNA content, as described below. , Diaphysis; O, epiphysis; Δ; kidney. P<0.01 versus controls.
The pieces were then incubated for 2 h more (the time indicated in FIG. 12) with [^3 H]thymidine (5 μci/ml; 5 Ci/mmol) at 37° C. in Dulbecco's modified Eagle's medium under an atmosphere Of […] /95% air. Total [^3 H]thymidine uptake and incorporation into trichloroacetic acid-insoluble material was measured as described in Biochem. J., 214 (1983) 293-298 (16; Somjen et al.). At no time including the 22 24 h pulse, was there any significant change in the total uptake of [^3 H]thymidine which reflects changes in the thymidine pool which, in turn, could account for changes in incorporation. DNA was determined by the Burton method; cf. Biochem. J., 62 (1956) 315-323 (17; Burton).
To corroborate that under the circumstances of these experiments the increase in CK specific activity in bone is indeed a valid marker of cell proliferation, changes in DNA synthesis were measured by [^3 H]thymidine incorporation; cf. Biochem. J., 272 (1990) 781-785 (18; Somjen et al.). The earliest time at which PTH increased [^3 H]thymidine incorporation was determined by in-jecting rats with an optimal dose of 2 μp of PTH(1-34)/rat, equivalent to 13 nM (FIG. 14) and measuring 2 h pulses of [^3 H)thymidine incorporation into DNA (FIG. 12).
This is another data set of the same source.

Series [7] concerns osteoblast enriched rat embryo calvaria cell cultures. As to the kind of experiment: CK specific activity in rat embryo calvaria cell cultures. It is filed as cell-based. To be noted: for increase of CK activity (in words): treated for 24 h. Here is the method:
as §1, §2

Series [8] relates to rat organs (epiphysis, diaphysis, kidney). Description: CK specific activity in rat organs after i.p. injection. It is filed as in vivo. To be noted: i.p., 4 h later. The protocol: FIG. 13 is a graph showing the time-dependent stimulation by hPTH (28-48) of CK specific activity in rat organs. Female rats (20-25 days old) were injected i.p. with hPTH-(28-48) (1.25 μg/rat). Experimental details are as described for FIG. 10. (a) Diaphysis, (b) epiphysis, (c) kidney. *P<0.05, **P<0.01 versus controls.
FIG. 14 is a graph showing the dose-dependent stimulation of CK specific activity by hPTH (1-34) in rat organs. Female rats (20-25 days old) were injected i.p. with hPTH-(1-34). At 4 h later, rats were killed and extracts were prepared and assayed as described below. Experimental details are as described for FIG. 10 (a) Diaphysis, (b) epiphysis, (c) kidney. *P<0.05, ** P<0.01 versus controls.
FIG. 15 is a graph showing the dose-dependent stimulation of CK specific activity by hPTH (28-48) in rat organs. Female rats (20-25 days old) were injected i.p. with hPTH-(28-48). Experimental details are as described for FIG. 13 (a) Diaphysis, (b) epiphysis, (c) kidney. *P<0.05, **P<0.01 versus controls.
FIG. 16 is a graph showing the […] stimulation by bPTH (1-84) of CK specific activity in rat organs. Female rats (20-25 days old) were injected i.p. with bPTH-(1-84) (3.5 μg/rat). At the times indicated, the rats were killed and the diaphyses (a) and epiphyses (b) of long bones as well as the kidneys (c) were collected and homogenized. Extracts were prepared and assayed as described below. Results are means ±S.E.M for π=5. Statistical significance of differences between treated and control groups by Student's T test: *P<0.05; **P<0.01. Note that the activity scales differ for different organs.
Kidneys, tibia and femur were excised; the epiphyses or diaphyses of the long bones were collected and washed thoroughly with cold 0.9% NaCl. The bones were split open lengthwise and the marrow was scraped out. Organs were homogenized in ice-cold buffer containing 50 mM-Tris/HCl (pH 6.8), 5 mH-magnesium acetate. 2.5 mM-dithiothreitol, 0.4 mM-EDTA and 250 mM-sucrose using a Polytron homogenizer in 10 s bursts with intervening cooling periods. Supernatant extracts were obtained by centrifugation at 12000 g for 5 min at 4° C. CK activity was measured at 30° C. in a Gilford 250 automatic recording spectrophotometer at 340 nm using a coupled assay for ATP, in 0.5 ml of incubation mixture containing 50 mM-imidazole acetate buffer (pH 6.7), 25 mM-phosphocreatine, 20 mM-N-acetylcysteine, 20 mM-D-glucose, 10 mM-magnesium acetate, 5 mM-EDTA, 2 mM-ADP, 2 mM-NAD+, 2 mM-dithiothreitol, 50 μM-diadenosine pentaphosphate (adenylate kinase inhibitor), 5 μg of bovine serum albumin. 1.2 units of glucose-6-phosphate dehydrogenase and 0.8 units of hexokinase. Protein was determined by the Coomassie Brilliant Blue dye-binding method, with bovine serum albumin as the standard.

The subject of series [9] is ROS 17/2.8 osteoblast-like cells. As to the kind of experiment: Cyclic AMP production in ROS 17/2.8 osteoblast-like cells. It is filed as cell-based, rat. To be noted: for Cyclic AMP, effect of fragment (experimental value/control value): control 29 ± 5.2 pmol/mg of protein. Here is the method:
When cultures of the widely used model for osteoblasts, the osteoblast-likeclone of rat osteosarcoma, ROS 17/2.8 (Endocrinology (Baltimore), 107 (1980) 1494-1503=12; Majeska et al.), were incubated with full-length PTH and PTH fragments (Table 4), cyclic AMP production was stimulated only by bPTH(1-84) and hPTH(1-34), whereas hPTH(25-39), hPTH(27-48), hPTH(28-48) and hPTH(34-47) were ineffective.

For series [10], the system named is rat epiphysial cartilage cell cultures. As to the kind of experiment: DNA synthesis in rat epiphysial cartilage cell cultures. Format: cell-based. The conditions noted are these: 10 nM; control 350 ± 25.
For series [11] the test system is unchanged. As to the kind of experiment: CK specific activity in rat epiphysial cartilage cell cultures. Format: cell-based. Here is the method:
To compare the stimulations seen in osteoblast-like cells (FIGS. 10 and 11) with PTH effects in a cartilage system, cultures of rat epiphysial cartilage cells were incubated with full-length PTH and selected PTH fragments (Table 3). CK activity was stimulated by bPTH(1-84) and hPTH(28-48) but not by hPTH(25-39) or hPTH(34-47). […] The comparison between the complete molecule and the mid-regional fragment hPTH (28-48) is similar to but not identical with the results obtained for calvaria cell cultures (FIGS. 10 and 11) and in the chick sternum chondrocyte system; cf. Biochem. J., 252 (1988) 263-268 (11; Farndale et al.),

Take `CC[C@H](C)[C@H](NC(=O)[C@H](CCC(=O)O)NC(=O)[C@H](CO)NC(=O)[C@@H](NC(=O)[C@@H](N)CO)C(C)C)C(=O)N[C@@H](CCC(N)=O)C(=O)N[C@@H](CC(C)C)C(=O)N[C@@H](CCSC)C(=O)N[C@@H](Cc1c[nH]cn1)C(=O)N[C@@H](CC(N)=O)C(=O)N[C@@H](CC(C)C)C(=O)NCC(=O)N[C@@H](CCCCN)C(=O)N[C@@H](Cc1c[nH]cn1)C(=O)N[C@@H](CC(C)C)C(=O)N[C@@H](CC(N)=O)C(=O)N[C@@H](CO)C(=O)N[C@@H](CCSC)C(=O)N[C@@H](CCC(=O)O)C(=O)N[C@@H](CCCNC(=N)N)C(=O)N[C@H](C(=O)N[C@@H](CCC(=O)O)C(=O)N[C@@H](Cc1c[nH]c2ccccc12)C(=O)N[C@@H](CC(C)C)C(=O)N[C@@H](CCCNC(=N)N)C(=O)N[C@@H](CCCCN)C(=O)N[C@@H](CCCCN)C(=O)N[C@@H](CC(C)C)C(=O)N[C@@H](CCC(N)=O)C(=O)N[C@@H](CC(=O)O)C(=O)N[C@H](C(=O)N[C@@H](Cc1c[nH]cn1)C(=O)N[C@@H](CC(N)=O)C(=O)N[C@@H](Cc1ccccc1)C(=O)O)C(C)C)C(C)C` [hPTH(1-34)]: the “DNA synthesis in the diaphysis and the epiphysis at 24 h (in words)” value in [1] (2 μg/rat, 24 h) is given as “significant increase”. Further, the “stimulation of DNA synthesis (in words)” value in series [2] is listed as “maximal”. Further, the “CK specific activity, effect of fragment (experimental value/control value)” value in series [3] (40 nM) amounted to 1.83 ± 0.09. The “[^3 H]Thymidine incorporation, effect of fragment (experimental value/control value)” value in series [4] (40 nM) was found to be 2.06 ± 0.09. Further, the “stimulation of cyclic AMP production (in words)” value in series [5] (treated for 15 min) was “able to stimulate cyclic AMP formation”; in series [9] it was “stimulated”. Also, in [6] (2 μg/rat, equivalent to 13 nM, 2 h pulses), the “DNA synthesis in the kidney over time (in words)” value was “no increase in DNA synthesis at any time”. In addition, the “DNA synthesis in the diaphysis and the epiphysis at 4 or 16 h (in words)” value in [6] (2 μg/rat, 4 or 16 h) is given as “no change”. Besides, the “increase of CK activity (in words)” value in [7] is “maximally active”. Further, the “dose of maximal effect on CK specific activity” value in [8] was determined as 2 μg/rat. Further, the “dose giving a significant increase in CK specific activity in all organs” value in [8] (diaphysis, epiphysis, kidney) was 0.4 μg/rat. The “Cyclic AMP, effect of fragment (experimental value/control value)” value in [9] (40 nM) is listed as 4.67 ± 0.09.

B1: bPTH(1-84): full-length (complete) parathyroid hormone, bovine source; comparative example (protein, UniProt P01268 32-115, looked up)
Parathyroid hormone: AVSEIQFMHNLGKHLSSMERVEWLRKKLQDVHNFVALGASIAYRDGSSQRPRKKEDNVLVESHQKSLGEADKADVDVLIKAKPQ
modifications: Parathyroid hormone
Consider B1, for which the “[^3 H]thymidine incorporation into DNA, Kidney” value in series [1] (rat, 22-24 h after injection of 3.5 μg, control 9.0 ± 2.1) is 11.8 ± 2.4 c.p.m./pg of DNA. Besides, in series [1] (rat, 22-24 h after injection of 3.5 μg, control 24.1 ± 3.8), the “[^3 H]thymidine incorporation into DNA, Diaphysis” value was 43.4 ± 4.7 c.p.m./pg of DNA. Moreover, in series [1] (rat, 22-24 h after injection of 3.5 μg, control 25.8 ± 5.2), the “[^3 H]thymidine incorporation into DNA, Epiphysis” value is 40.7 ± 3.3 c.p.m./pg of DNA. Moreover, the “stimulation of DNA synthesis (in words)” value in [2] is “maximal”. In addition, in [2] (100 nM, 24 h, control 624 ± 73 c.p.m./μg of DNA), the “[3H)Thymidine incorporation, effect of fragment (experimental value/control value)” value is recorded as 2.61 ± 0.11. Further, the “CK specific activity, effect of fragment (experimental value/control value)” value was 1.92 ± 0.11 in series [3] (10 nM) and 2.27 ± 0.09 in series [7] (100 nM, 24 h, control 457 ± 46 nmol/min per mg of protein). Besides, the “[^3 H]Thymidine incorporation into DNA” value in series [10] is recorded as 556 ± 50 c.p.m./plate. In addition, in series [4] (10 nM), the “[^3 H]Thymidine incorporation, effect of fragment (experimental value/control value)” value is 1.71 ± 0.18. In addition, in series [5] (100 nM, 15 min, control 29 ± 2.9 pmol/mg of protein), the “Cyclic AMP concentration, effect of fragment (experimental value/control value)” value is recorded as 3.74 ± 0.30. For the same molecule, the “stimulation of CK activity (in words)” value in series [11] is listed as “stimulated”. Also, the CK specific activity in series [11] (10 nM, control 225 ± 32) is 389 ± 39 nmol/min per mg of protein. For the same molecule, in [6] (22-24 h after injection), the “stimulation of DNA synthesis in the kidney (in words)” value is “no significant stimulation”. The “increase of CK activity (in words)” value in series [7] was “maximally active”. In series [9], the “stimulation of cyclic AMP production (in words)” value was “stimulated”. Further, the “Cyclic AMP, effect of fragment (experimental value/control value)” value in series [9] (10 nM) was found to be 4.60 ± 0.10.

The record behind these values is patent US5457092A, “Methods of promoting bone growth in mammals comprising administration of modified parathyroid hormone” (Gesellschaft fur Biotechnologische Forschung mbH (GBF), priority 1987, dated 1995).
